± gives the standard error. For some of these results: Fewer inactive variants are shown than the library holds.
B1: glmS ribozyme (parent)
chain: AUAAAAGCGCCAGAACUACAGAAAUGUAGUUGACGAGGAGGAGGUUUAUCGAAUUUUCGGCGGAUGCCUCCAAA

How the values were obtained:
Conditions in all cases: with glucosamine-6-phosphate
glucosamine-6-phosphate [1] = variants of: B1; assay: kcat; higher = faster cleavage; RNA array
How it was run: (§1)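 kobs was derived by fitting per-tile medians to one- or two-exponential decays after normalising signals to baseline and to non-cleaving reference variants. Those signals came from barcoded ribozyme variants transcribed in situ by E. coli RNA polymerase on sequenced MiSeq chips, followed through a hybridised Cy3 probe at 37 °C and imaged over ~14 h. Glucosamine-6-phosphate (40 μM to 10 mM) in HEPES/KCl/Mg(OAc)2 buffer was flowed in. Weighted Michaelis–Menten fits across concentrations then gave kcat and KM.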

glucosamine-6-phosphate [2] = variants of: B1; assay: self-cleavage kobs at 640 uM GlcN6P; higher = faster cleavage; RNA array
How it was run: as §1

glucosamine-6-phosphate [3] = variants of: B1; assay: self-cleavage kobs at 40 uM GlcN6P; higher = faster cleavage; RNA array
How it was run: as §1

glucosamine-6-phosphate [4] = variants of: B1; assay: self-cleavage kobs at 160 uM GlcN6P; higher = faster cleavage; RNA array
How it was run: as §1

glucosamine-6-phosphate [5] = variants of: B1; assay: self-cleavage kobs at 2500 uM GlcN6P; higher = faster cleavage; RNA array
How it was run: as §1

glucosamine-6-phosphate [6] = variants of: B1; assay: self-cleavage kobs at 10000 uM GlcN6P; higher = faster cleavage; RNA array
How it was run: as §1

glucosamine-6-phosphate [7] = variants of: B1; assay: KM; higher = weaker cofactor use; RNA array
How it was run: as §1

Row | Variant | kcat (glucosamine-6-phosphate [1]) [s⁻¹] | self-cleavage kobs at 640 uM GlcN6P (glucosamine-6-phosphate [2]) [s⁻¹] | self-cleavage kobs at 40 uM GlcN6P (glucosamine-6-phosphate [3]) [s⁻¹] | self-cleavage kobs at 160 uM GlcN6P (glucosamine-6-phosphate [4]) [s⁻¹] | self-cleavage kobs at 2500 uM GlcN6P (glucosamine-6-phosphate [5]) [s⁻¹] | self-cleavage kobs at 10000 uM GlcN6P (glucosamine-6-phosphate [6]) [s⁻¹] | KM (glucosamine-6-phosphate [7]) [µM]
1 | G59U U65G | < 1e-05 | < 1e-05 |  |  |  |  | 
2 | U55G U69A | 0.000144 ± 3.5e-05 | 0.00015 ± 1.9e-05 | 4.44e-05 ± 1.1e-05 | 7.03e-05 ± 9.5e-06 | 0.00021 ± 2.3e-05 | 9.83e-05 ± 1.7e-05 | 
3 | U56A C67A | 0.00827 ± 0.0033 | 0.00132 ± 0.00016 | 0.000132 ± 1.3e-05 | 0.000294 ± 4.8e-05 | 0.00323 ± 0.00075 | 0.00678 ± 0.0011 | 3230 ± 1600
4 | G51U C58U | < 1e-05 |  |  | < 1e-05 |  | < 1e-05 | 
5 | C61A A64G | < 1e-05 |  | < 1e-05 |  |  |  | 
6 | A53U U69G | 6.8e-05 ± 1.2e-05 | 4.69e-05 ± 1.2e-05 |  | 6.15e-05 ± 1.2e-05 | 8.29e-05 ± 9.4e-06 | 4.84e-05 ± 1.2e-05 | 
7 | A52U U57A | 0.00351 ± 0.00067 | 0.000344 ± 6.8e-05 |  | 9.27e-05 ± 1.9e-05 | 0.00123 ± 0.00025 | 0.00213 ± 0.00033 | 5900 ± 1500
8 | A52U U57G | 5.28e-05 ± 9.7e-06 |  | < 1e-05 |  |  | 4.88e-05 ± 7.6e-06 | 
9 | U57G C68G | 4.47e-05 ± 1.1e-05 | 4.72e-05 ± 1.4e-05 | 2.48e-05 ± 1.2e-05 | 4.02e-05 ± 1.5e-05 | 5.88e-05 ± 1.3e-05 |  | 
10 | G63A C68U | < 1e-05 |  | < 1e-05 |  |  |  | 
11 | A52G C70G | 6.89e-05 ± 3.6e-06 | 5.76e-05 ± 1.2e-05 |  | 5.53e-05 ± 1e-05 | 6.23e-05 ± 7.9e-06 | 7.2e-05 ± 6.7e-06 | 65.2 ± 26
12 | U57A C68A | 2.64e-05 ± 5.2e-06 |  |  |  |  |  | 
13 | U56A C58A | 0.00106 ± 0.00052 | 0.000101 ± 1.3e-05 |  | 3.2e-05 ± 1.1e-05 | 0.000187 ± 2.3e-05 | 0.000605 ± 5.6e-05 | 
14 | U56A C58G | 0.000188 ± 1.8e-05 | 4.15e-05 ± 9.1e-06 |  |  | 0.000121 ± 1.6e-05 | 0.000151 ± 1.7e-05 | 1930 ± 470
15 | U54G G66A | 0.0134 ± 0.0022 | 0.00385 ± 0.00097 | 0.000427 ± 4.8e-05 | 0.00123 ± 0.00022 | 0.00659 ± 0.0015 | 0.0132 ± 0.0016 | 1380 ± 320
16 | U55G G60C | < 1e-05 |  |  | < 1e-05 |  |  | 
